Assay results reported in patent publication US20170101476A1 (Novartis, published 2017).
Read-outs that look alike come from different tables or passages of the source.

T1: Human CXCR2 (human, UniProt P25025 1-360)
T1 sequence: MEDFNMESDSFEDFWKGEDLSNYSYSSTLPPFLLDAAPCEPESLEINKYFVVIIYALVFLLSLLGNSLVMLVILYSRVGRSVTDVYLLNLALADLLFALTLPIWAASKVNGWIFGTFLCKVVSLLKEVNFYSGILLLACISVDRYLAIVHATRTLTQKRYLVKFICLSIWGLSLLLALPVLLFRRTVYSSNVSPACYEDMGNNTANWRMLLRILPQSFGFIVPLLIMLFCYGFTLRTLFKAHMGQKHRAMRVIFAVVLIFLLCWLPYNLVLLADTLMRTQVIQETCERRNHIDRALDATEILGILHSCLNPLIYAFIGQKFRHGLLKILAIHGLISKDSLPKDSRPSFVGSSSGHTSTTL

T2: Cynomolgus CXCR2 (cynomolgus, UniProt Q28519 3-353 (rhesus entry))
T2 chain: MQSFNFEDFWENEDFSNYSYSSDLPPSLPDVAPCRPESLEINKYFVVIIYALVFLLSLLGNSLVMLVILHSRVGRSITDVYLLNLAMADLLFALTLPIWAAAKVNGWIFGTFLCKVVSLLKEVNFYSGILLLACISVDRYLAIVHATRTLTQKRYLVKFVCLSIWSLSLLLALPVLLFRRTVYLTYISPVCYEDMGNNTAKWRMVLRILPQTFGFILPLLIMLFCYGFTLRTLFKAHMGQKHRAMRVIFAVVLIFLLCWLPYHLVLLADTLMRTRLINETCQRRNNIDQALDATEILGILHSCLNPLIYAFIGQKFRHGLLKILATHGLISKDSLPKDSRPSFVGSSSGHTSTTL


Experiments:
Assay in all cases: cell-based or functional assay
[1] = target: T1, Human CXCR2
[2] = target: T2, Cynomolgus CXCR2
[3] = target: T1, Human CXCR2; remark: listed apart in the source
[4] = target: T1, Human CXCR2; remark: listed apart in the source
[5] = target: T2, Cynomolgus CXCR2
[6] = target: T1, Human CXCR2; remark: listed apart in the source

| Binder | FLIPR IC50, GRO-α induced intracellular calcium release [1] [nM] | FLIPR IC50, GRO-α induced intracellular calcium release [2] [nM] | [35S]GTPγS % inhibition of max, GRO-α [3] [%] | [35S]GTPγS accumulation IC50, GRO-α [3] [nM] | Human Chemotaxis IC50 (vs rhGROα) [4] [nM] | Human WBSC IC50 (vs rhGROα) [4] [nM] | Cynomologus WBSC IC50 (vs rhGROα) [5] [nM] | [35S]GTPγS % inhibition of max, ENA-78 [3] [%] | [35S]GTPγS % inhibition of max, IL-8 [3] [%] | [35S]GTPγS accumulation IC50, ENA-78 [3] [nM] | [35S]GTPγS accumulation IC50, IL-8 [3] [nM] | FLIPR IC50, GRO-α induced intracellular calcium release [6] [nM] |
| --- | --- | --- | --- | --- | --- | --- | --- | --- | --- | --- | --- | --- |
| CXCR20026 (bispecific antibody, not shown: small tags and cut ends) EVQLVESGGGLVQPGGSLRLSCVASGRIFSSNAMGWFRQAPGKEREFVAAITWRSGGSAYYADSAKGRFTISRDNAKNTVYLQMNSLKPEDTAVYYCAAGGSSWLSFPPDYWGQGTQVTVSSGGGGSGGGGSGGGGSGGGGSGGGGSGGGGSGGGGSEVQLVESGGGLVQAGESLRLSCAASGSTFDFKVMGWYRQPPGKQREGVAAIRLSGNMHYAESVKGRFTISKANAKNTVYLQMNSLRPEDTAVYYCKVNIRGQDYWGQGTQVTVSS | 12.3 | 9.1 | 100 | 0.809 | 0.14 | 0.165 | 0.26 |  |  |  |  |  |
| CXCR20033 (bispecific antibody, not shown: small tags and cut ends) EVQLVESGGGLVQPGGSLRLSCVASGRIFSSNAMGWFRQAPGKEREFVAAITWRSGGSAYYADSAKGRFTISRDNAKNTVYLQMNSLKPEDTAVYYCAAGGSSWLSFPPDYWGQGTQVTVSSGGGGSGGGGSGGGGSGGGGSGGGGSGGGGSGGGGSEVQLVESGGELVQPGGSLRLSCAASGSILTINAMGWYRQAPGKQRELVVRRTRGGSTTYQDSVKGRFTISADIAKKTMYLQMNSLKPEDTAVYYCMLDDRGGVYWGQGTQVTVSS | 17.9 | 4.46 | 100 | 1.01 | 0.145 | 0.345 | 0.42 |  |  |  |  |  |
| CXCR20030 (other, not shown: small tags and cut ends) EVQLVESGGGLVQAGGSLRLSCAASGRTFSDYAMGWFRQAPGKEREFVAAITWNGGRVFYTASVKGRFTISRDNAKNTMYLQMNSLKPEDTAVYYCAADKDRRTDYLGHPVAYWGQGTQVTVSSGGGGSGGGGSGGGGSGGGGSGGGGSGGGGSGGGGSEVQLVESGGGLVQAGGSLTLSCAVSGSTFRINTMGWYRRAPGKQRELVAARDRGGYINYVDSVKGRFTVSRDNAKPTMYLQMNSLKPEDTAVYYCHAGTQDRTGRNFDRWGQGTQVTVSS | 11.8 | 6.36 | 100 | 1.02 |  | 0.215 | 0.56 | 100 | 100 | 1.3 | 1.09 |  |
| CXCR20035 (other, not shown: small tags and cut ends) EVQLVESGGGLVQAGGSLTLSCAVSGSTFRINTMGWYRRAPGKQRELVAARDRGGYINYVDSVKGRFTVSRDNAKPTMYLQMNSLKPEDTAVYYCHAGTQDRTGRNFDRWGQGTQVTVSSGGGGSGGGGSGGGGSGGGGSGGGGSGGGGSGGGGSEVQLVESGGGLVQPGGSLRLSCVASGRIFSSNAMGWFRQAPGKEREFVAAITWRSGGSAYYADSAKGRFTISRDNAKNTVYLQMNSLKPEDTAVYYCAAGGSSWLSFPPDYWGQGTQVTVSS | 10.2 | 8.72 | 100 | 0.844 |  | 0.24 | 0.43 | 100 | 100 | 1.17 | 0.717 |  |
| CXCR20023 (bispecific antibody, not shown: small tags and cut ends) EVQLVESGGGLVQAGGSLRLSCAASGRTFSDYAMGWFRQAPGKEREFVAAITWNGGRVFYTASVKGRFTISRDNAKNTMYLQMNSLKPEDTAVYYCAADKDRRTDYLGHPVAYWGQGTQVTVSSGGGGSGGGGSGGGGSGGGGSGGGGSGGGGSGGGGSEVQLVESGGGLVQPGGSLRLSCVASGRIFSSNAMGWFRQAPGKEREFVAAITWRSGGSAYYADSAKGRFTISRDNAKNTVYLQMNSLKPEDTAVYYCAAGGSSWLSFPPDYWGQGTQVTVSS | 14.8 | 12 | 100 | 26.6 |  |  |  |  |  |  |  |  |
| CXCR20028 (other, not shown: small tags and cut ends) EVQLVESGGGLVQPGGSLRLSCVASGSIVRINTMGWYRQTPGKQRELVADITSGGNINYIDAVKGRFTISRDNTKNTVYLQMNSLKPEDTAVYYCNAEIVVLVGVWTQRARTGNYWGQGTQVTVSSGGGGSGGGGSGGGGSGGGGSGGGGSGGGGSGGGGSEVQLVESGGGLVQAGGSLTLSCAVSGSTFRINTMGWYRRAPGKQRELVAARDRGGYINYVDSVKGRFTVSRDNAKPTMYLQMNSLKPEDTAVYYCHAGTQDRTGRNFDRWGQGTQVTVSS | 21.9 | 17 | 100 | 1.38 |  | 0.43 | 1.72 |  |  |  |  |  |
| 137B07 (VHH, not shown: small tags and cut ends) VHH: EVQLVESGGGLVQPGGSVRLSCVASGIIFRLSALGWTRQGPGKAREWVAGINSDGTTNYADPVKGRFTISRDNAKNTIYLHMDMLKPEDTAVYYCASGKYRGQGTQVTVSS |  |  |  |  |  |  |  |  |  |  |  | 6.71 |
| CXCR20034 (bispecific antibody, not shown: small tags and cut ends) EVQLVESGGGLVQAGGSLRLSCAASGRTFSDYAMGWFRQAPGKEREFVAAITWNGGRVFYTASVKGRFTISRDNAKNTMYLQMNSLKPEDTAVYYCAADKDRRTDYLGHPVAYWGQGTQVTVSSGGGGSGGGGSGGGGSGGGGSGGGGSGGGGSGGGGSEVQLVESGGELVQPGGSLRLSCAASGSILTINAMGWYRQAPGKQRELVVRRTRGGSTTYQDSVKGRFTISADIAKKTMYLQMNSLKPEDTAVYYCMLDDRGGVYWGQGTQVTVSS | 11.8 | 9.47 | 100 | 0.995 | 0.145 | 0.29 | 0.44 |  |  |  |  |  |
| CXCR20022 (VHH, not shown: small tags and cut ends) EVQLVESGGGLVQAGGSLRLSCAASGRTFSDYAMGWFRQAPGKEREFVAAITWNGGRVFYTASVKGRFTISRDNAKNTMYLQMNSLKPEDTAVYYCAADKDRRTDYLGHPVAYWGQGTQVTVSSGGGGSGGGGSGGGGSGGGGSGGGGSGGGGSGGGGSEVQLVESGGGLVQAGGSLRLSCAASGRTFSDYAMGWFRQAPGKEREFVAAITWNGGRVFYTASVKGRFTISRDNAKNTMYLQMNSLKPEDTAVYYCAADKDRRTDYLGHPVAYWGQGTQVTVSS | 9.34 | 8.64 | 100 | 28.5 |  |  |  |  |  |  |  |  |
| CXCR20014 (bispecific antibody, not shown: small tags and cut ends) EVQLVESGGGLVQPGGSLRLSCVASGSIVRINTMGWYRQTPGKQRELVADITSGGNINYIDAVKGRFTISRDNTKNTVYLQMNSLKPEDTAVYYCNAEIVVLVGVWTQRARTGNYWGQGTQVTVSSGGGGSGGGGSGGGGSGGGGSGGGGSGGGGSGGGGSEVQLVESGGELVQPGGSLRLSCAASGSILTINAMGWYRQAPGKQRELVVRRTRGGSTTYQDSVKGRFTISADIAKKTMYLQMNSLKPEDTAVYYCMLDDRGGVYWGQGTQVTVSS | 6.84 | 13.7 | 100 | 1.38 | 0.16 | 0.445 | 0.16 | 100 | 100 | 1.66 | 1.13 |  |
